Test [1] has as its target PR‐RT model precursor (His6‐SUMO‐Δp6*‐PR(D25A)‐RT) (HIV‐1 isolate BH10). Put plainly: SEC-MALS.
Test [2] deals with PR(T26A)‐RT model precursor (HIV‐1 isolate BH10). Put plainly: SEC-MALS.

Values joined by “and” are separate entries in the source; they are usually repeats but may differ in a detail not shown here. Identical values can stand only once.

For the substance “PR‐RT model precursor (His6‐SUMO‐Δp6*‐PR(D25A)‐RT) (domain or fragment)”, the stoichiometry N in test [1] was 2 and 4. Regarding “PR(T26A)‐RT model precursor (domain or fragment)”, in test [2], the stoichiometry N is 2 and 4.

Source of the values: PMC11187873.
